Measurements as given in patent US11733236B2, “Flattop (fltp) is a novel biomarker for beta cell maturation” (Helmholtz Zentrum München—Deutsches Forschungszentrum Für …, priority 2014, dated 2023).

B1: Wnt5a: noncanonical Wnt ligand of the Wnt/PCP pathway, obtained from R&D systems (protein, UniProt P41221 62-380, looked up)
Protein Wnt-5a: IIGAQPLCSQLAGLSQGQKKLCHLYQDHMQYIGEGAKTGIKECQYQFRHRRWNCSTVDNTSVFGRVMQIGSRETAFTYAVSAAGVVNAMSRACREGELSTCGCSRAARPKDLPRDWLWGGCGDNIDYGYRFAKEFVDARERERIHAKGSYESARILMNLHNNEAGRRTVYNLADVACKCHGVSGSCSLKTCWLQLADFRKVGDALKEKYDSAAAMRLNSRGKLVQVNSRFNSPTTQDLVYIDPSPDYCVRNESTGSLGTQGRLCNKTSEGMDGCELMCCGRGYDQFKTVQTERCHCKFHWCCYVKCKKCTEIVDQFVCK
B2: Wnt3a: ligand of the canonical Wnt/β-catenin pathway (protein, UniProt P56704 19-352, looked up)
Protein Wnt-3a: SYPIWWSLAVGPQYSSLGSQPILCASIPGLVPKQLRFCRNYVEIMPSVAEGIKIGIQECQHQFRGRRWNCTTVHDSLAIFGPVLDKATRESAFVHAIASAGVAFAVTRSCAEGTAAICGCSSRHQGSPGKGWKWGGCSEDIEFGGMVSREFADARENRPDARSAMNRHNNEAGRQAIASHMHLKCKCHGLSGSCEVKTCWWSQPDFRAIGDFLKDKYDSASEMVVEKHRESRGWVETLRPRYTYFKVPTERDLVYYEASPNFCEPNPETGSFGTRDRTCNVSSHGIDGCDLLCCGRGHNARAERRREKCRCVFHWCCYVSCQECTRVYDVHTCK

Tests used:
β cells = experiment: multiple low-dose streptozotocin (STZ) model; format: in vivo, mouse; settings: Fltp ZV/+ and Fltp ZV/ZV mice, 40 mg/kg i.p. daily for 5 days, vs vehicle, up to day 16
Experimental: […] Blood glucose level was measured every 2 days using Freestyle Lite glucometer (Abbot Laboratory). On day 16 after the first STZ injection, GTT was carried out as described and mice were euthanized.
To further test the requirement of PCP and Fltp in the context of β cell survival and regeneration, a multiple low-dose streptozotocin (STZ) model was employed (Kolb 1987). Streptozotocin is a naturally occurring chemical that is particularly toxic to β cells. For this purpose STZ was injected on five consecutive days and blood glucose regulation was measured every 2nd day thereafter in Fltp^ZV/+ and Fltp^ZV/ZV cohorts (FIG. 5C). […] Thus, loss of Fltp and planar polarization in β cells increases the vulnerability to STZ.

[1] = test system: isolated islets of P5 WT animals; experiment: Ucn3 maturation marker staining in isolated, re-aggregated islets of P5 WT animals, Wnt5a stimulation, LSM; format: cell-based, mouse
Experimental: (§1) EndoC-β H1 human β-cell line were cultured in adherence (2D culture) as described previously (Ravassard et al. (2011)). For 3D matrigel based cultures EndoC-β H1 were cultured in Matrigel Matrix Growth Factor Reduced (BD Bioscience, Germany) diluted 1:2 in their respective medium. For analysis of WNT5a induced β-cell maturation, samples were stimulated with 400 ng/ml of WNT5a (R&D systems, Germany) for 12 h or 3 days.
Murine pancreatic islets of Langerhans were isolated from 5 day old mice. After decapitation of the animals, the pancreas was dissected and supplemented with collagenase P (1 mg/ml) in HBSS (Hanks balanced salt solution) including 10% BSA (G-solution) and incubated for 15 min at 37° C. The pancreas was washed 2× in G-solution at RT and the islets were picked under the stereomicroscope (Leica). The islets were incubated in RPMI 1640 plus 5% FCS (fetal calf serum) and 1% P/S (penicillin and streptomycin). Afterwards the islets were trypsinized with 0.05% Trypsin […] at 37° C., washed twice with PBS plus 0.3% BSA and then seeded in iBidi 8 well chambers. For immunohistochemistry the protocol mentioned above was used. Fluorescent intensity was calculated by the Leica LAS-AF (Version 2.7.3.9723) software and the graphs were plotted with Excel.

[2] = test system: Fltp reporter expression in β cells of cultured islets; experiment: Fltp reporter expression in isolated islets cultured in absence or presence of Wnt ligands; format: cell-based, mouse; settings: islets of Fltp-T2A-iCre x mTmG mice cultured in absence or presence of ligand
Experimental: For lineage tracing studies, islet from eight-week-old Fltp^T2A-iCre-mTmG were isolated as described above. For FACS analysis islet were incubate with 0.25% Trypsin-EDTA (Invitrogen) to obtain single cell suspensions and intarcellular staining for Nkx6.1 was performed. For live imaging experiment isolated islets from Fltp^T2A-iCre-mTmG were cultured in matrigel and imaging was performed using Leica Confocal SP5 microscope.
Islets of these crossings were isolated and cultured in vitro. To establish the culture conditions, it is first tested if β cells depend on Wnt/PCP signaling to maintain Ftp reporter expression. Therefore, islets were cultured in absence or presence of ligands of the canonical Wnt/β-catenin (Wnt3a) and non-canonical Wnt/PCP pathway (Wnt5a). […] Using these culture conditions in combination with live single cell imaging will allow us to follow new born Fltp-Cre expressing mT and mG expressing cells over a time-course of two to four days.

EndoC-β H1 human β-cells = experiment: NKX6.1 maturation marker expression in EndoC-β H1 cells cultured in Matrigel (3D), WNT5a stimulation, LSM immunofluorescence; format: cell-based
Experimental: as §1
Staining of EndoC-β H1 cells was performed as follows: cells were fixed for 10 min in 4% PFA at 37° C. washed 3× with PBS containing 0.2% Tween and 0.3% BSA (washing buffer) at RT, and permeabilized for 30 min on a shaker at RT. Subsequently the cells were washed again 3× with washing buffer at RT, blocked for 1 h at RT in blocking buffer (PBS including 0.02% Tween, 10% FCS, 0.2% BSA, 3% serum). Then the primary antibody was added in blocking solution and incubated over night at 4° C. The cells were washed 3× in washing buffer, incubated with the secondary antibody for 2 h at RT, washed 3× in washing buffer and embedded in Elvanol for subsequent imaging. Imaging was performed with a Leica SP5 confocal microscope according to the manufacturers guidelines. The 63× glycerol objective was used.

Molecule | loss of β cells (immunohistochemistry on pancreatic sections) (β cells) | amount of maturation marker Ucn3 protein ([1]; islets of P5 WT animals treated with Wnt5a for 12 h vs non-treated, 400 ng/ml, n=3) | Ucn3 maturation marker staining ([1]; islets of P5 WT animals treated with Wnt5a for 3 days vs untreated, 400 ng/ml, n=3) | expression of maturation markers ([1]; neonatal isolated islets stimulated with Wnt5a) | maintenance of Fltp reporter gene expression [2] | expression of NKX6.1 (fluorescent intensity, NKX6.1 high vs low cells) (EndoC-β H1 human β-cells; EndoC-β H1 in Matrigel (3D) treated with WNT5a vs 3D without WNT5a, 400 ng/ml) | expression of maturation markers (EndoC-β H1 human β-cells; EndoC-β H1 stimulated with Wnt5a)
CN(N=O)C(=O)N[C@H]1C(O)O[C@H](CO)[C@@H](O)[C@@H]1O (mixture of isomers) [STZ, Streptozotocin] | gradual loss of β cells |  |  |  |  |  | 
B1 |  | higher amount of maturation marker Ucn3 protein | significant increase in Ucn3 maturation marker staining | increased expression of maturation markers | Fltp-reporter gene expression indeed depend on Wnt/PCP | higher expression of NKX6.1 | increased expression of maturation markers
B2 |  |  |  |  | not canonical Wnt signaling |  | 
